Several values for one entry are separate records, joined by “and”; a condition that tells them apart may be missing. Equal values may be shown once.
T1: human TNFR2 on the cell membrane (human, UniProt P20333 23-461)
T1 construct: whole, on cells; One molecule for all cell formats; also called TNFR2-CHO cells; CHO-TNFR2
T1 sequence (looked up): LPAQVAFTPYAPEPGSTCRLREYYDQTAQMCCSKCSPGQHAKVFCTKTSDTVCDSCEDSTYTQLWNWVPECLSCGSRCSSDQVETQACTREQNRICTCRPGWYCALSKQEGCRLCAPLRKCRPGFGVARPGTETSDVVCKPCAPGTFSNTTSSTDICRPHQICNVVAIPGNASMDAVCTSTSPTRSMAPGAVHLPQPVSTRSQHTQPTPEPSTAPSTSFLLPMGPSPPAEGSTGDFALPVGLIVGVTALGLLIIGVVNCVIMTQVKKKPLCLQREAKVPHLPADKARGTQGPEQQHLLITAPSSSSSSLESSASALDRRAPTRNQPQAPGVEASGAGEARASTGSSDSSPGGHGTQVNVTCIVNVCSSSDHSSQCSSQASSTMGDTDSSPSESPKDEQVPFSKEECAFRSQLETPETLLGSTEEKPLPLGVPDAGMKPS

T2: TNFR2-His (Sino Biological, 10417-H08H, NP_001057.1 Met1-Asp257, with multi-histidine tag expressed on … (human, UniProt P20333 23-257))
T2 construct: range 1-257; Bought protein; also called recombinant human TNFR2 protein; TNFR2-His antigen; not shown: C-terminal multi-histidine tag
T2 sequence (looked up): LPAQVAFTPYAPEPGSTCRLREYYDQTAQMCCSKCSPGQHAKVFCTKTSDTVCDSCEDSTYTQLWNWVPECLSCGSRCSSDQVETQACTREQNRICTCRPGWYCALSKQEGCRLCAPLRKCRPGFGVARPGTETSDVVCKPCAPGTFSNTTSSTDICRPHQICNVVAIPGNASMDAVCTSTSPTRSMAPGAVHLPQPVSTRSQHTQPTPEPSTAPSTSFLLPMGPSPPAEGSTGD


Legend:
[1] = biological target: T1, human TNFR2 on the cell membrane; assay: flow cytometry, CHO-TNFR2 cells
Procedure, shortened: (§1)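 EC50 values come from flow cytometry of serially diluted antibodies binding CHO cells that stably overexpress human TNFR2. After incubation in 96-deep-well plates, the cells were washed, stained with a fluorescent anti-IgG secondary antibody and read on a Beckman CytoFLEX.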

[2] = biological target: T2, TNFR2-His (Sino Biological, 10417-H08H, …); assay: BLI, antibody captured on AHC probe, TNFR2-His in solution
Procedure, shortened: (§2)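 Kon, koff and Kd values come from kinetic association measurements made by bio-layer interferometry (Octet, Basic Kinetics mode). Antibody-capture sensors carrying antibodies at 50 nM in Q buffer (10 mM PBS pH 7.4, 0.02% Tween 20, 0.2% BSA) were placed in recombinant human TNFR2, diluted 2-fold in the same buffer from a top concentration of 100 nM.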

[3] = biological target: T2, TNFR2-His (Sino Biological, 10417-H08H, …); assay: ELISA, coated TNFR2-His
Procedure, shortened: (§3)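 EC50 was obtained from a dilution series in an ELISA format. Blocked plates carried recombinant human TNFR2 with a C-terminal His tag, and serially diluted antibodies were incubated on them. An enzyme-labelled anti-IgG secondary antibody followed. Plates were then developed with TMB and read on a microplate reader.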

[4] = biological target: T2, TNFR2-His (Sino Biological, 10417-H08H, …); assay: ELISA, plate coated with TNFR2-His
Procedure, shortened: as §3

[5] = biological target: T1, human TNFR2 on the cell membrane; assay: flow cytometry on CHO-TNFR2 cells
Procedure, shortened: as §1

[6] = biological target: T2, TNFR2-His (Sino Biological, 10417-H08H, …); assay: ELISA, plate coated with TNFR2-His (second test)
Procedure, shortened: as §3

[7] = biological target: T2, TNFR2-His (Sino Biological, 10417-H08H, …); assay: BLI, antibody captured on AHC probe, TNFR2 in solution
Procedure, shortened: as §2

[8] = biological target: T1, human TNFR2 on the cell membrane; assay: flow cytometry on CHO-TNFR2 cells; remark: listed apart in the source
Procedure, shortened: as §1

| Binder | EC50 [1] | Kd [2] | koff [2] | kon [2] | EC50 [3] | EC50 [4] | EC50 [5] | EC50 [6] | Kd [7] | koff [7] | kon [7] | EC50 [8] |
| --- | --- | --- | --- | --- | --- | --- | --- | --- | --- | --- | --- | --- |
| 33C12huVH2 + huVL2(P07301) (antibody, V domains shown, Humanized 33C12) VH: EVQLVESGGGLVKPGGSLRLSCAASGFTFSDYTMSWVRQAPGKGLEWVATISTGGSYTYYPDSVKGRFTISRDNAKNTLYLQMSSLRAEDTAVYYCARDGGYDGDYFDYWGQGTTVTVSS VL: ENVLTQSPATLSLSPGERATLSCRASSSVSSSYLHWYQQKPGQAPRLWIYRTSNLASGVPARFSGSGSGTDFTLTISRLEPEDFAVYYCQQYSGYPLTFGGGTKLEIK | 0.873 nM | 17.8 nM | 0.00279 s⁻¹ | 157000 M⁻¹ s⁻¹ | 0.886 nM | 0.132 µg/mL | 0.13 µg/mL | – | – | – | – | – |
| 33C12huVH1 + huVL1(P07298) (antibody, V domains shown, Humanized 33C12) VH: DVQLVESGGGLVKPGGSLRLSCAASGFTFSDYTMSWVRQAPGKGLEWVATISTGGSYTYYPDSVKGRFTISRDNAKNTLYLQMSSLRAEDTAVYYCTRDGGYDGDYFDYWGQGTTVTVSS VL: ENVLTQSPATLSLSPGERATMSCRASSSVSSSYLHWYQQKPGQAPRLWIYRTSNLASGVPARFSGSGSGTDYTLTISRVEPEDFAVYYCQQYSGYPLTFGGGTKLEIK | 0.448 nM | 17.7 nM | 0.00171 s⁻¹ | 96400 M⁻¹ s⁻¹ | 0.433 nM | 0.0646 µg/mL | 0.0669 µg/mL | – | – | – | – | – |
| 33C12huVH2 + huVL1(P07299) (antibody, V domains shown, Humanized 33C12) VH: EVQLVESGGGLVKPGGSLRLSCAASGFTFSDYTMSWVRQAPGKGLEWVATISTGGSYTYYPDSVKGRFTISRDNAKNTLYLQMSSLRAEDTAVYYCARDGGYDGDYFDYWGQGTTVTVSS VL: ENVLTQSPATLSLSPGERATMSCRASSSVSSSYLHWYQQKPGQAPRLWIYRTSNLASGVPARFSGSGSGTDYTLTISRVEPEDFAVYYCQQYSGYPLTFGGGTKLEIK | 2.27 nM | 15.1 nM | 0.0013 s⁻¹ | 86100 M⁻¹ s⁻¹ | 1.46 nM | 0.218 µg/mL | 0.34 µg/mL | – | – | – | – | – |
| 33C12huVH2 + huVL3(P07303) (antibody, V domains shown, Humanized 33C12) VH: EVQLVESGGGLVKPGGSLRLSCAASGFTFSDYTMSWVRQAPGKGLEWVATISTGGSYTYYPDSVKGRFTISRDNAKNTLYLQMSSLRAEDTAVYYCARDGGYDGDYFDYWGQGTTVTVSS VL: EIVLTQSPATLSLSPGERATLSCRASSSVSSSYLHWYQQKPGQAPRLLIYRTSNLATGIPDRFSGSGSGTDFTLTISRLEPEDFAVYYCQQYSGYPLTFGGGTKLEIK | 1.12 nM | 16.3 nM | 0.00167 s⁻¹ | 102000 M⁻¹ s⁻¹ | 0.771 nM | 0.115 µg/mL | 0.167 µg/mL | – | – | – | – | – |
| 33C12huVH3 + huVL1(P07300) (antibody, V domains shown, Humanized 33C12) VH: EVQLVESGGGLVKPGGSLRLSCAASGFTFSDYTMSWVRQAPGKGLEWVATISTGGSYTYYADSVKGRFTISRDNAKNSLYLQMNSLRAEDTAVYYCARDGGYDGDYFDYWGQGTTVTVSS VL: ENVLTQSPATLSLSPGERATMSCRASSSVSSSYLHWYQQKPGQAPRLWIYRTSNLASGVPARFSGSGSGTDYTLTISRVEPEDFAVYYCQQYSGYPLTFGGGTKLEIK | 1.44 nM | 12.7 nM | 0.00223 s⁻¹ | 175000 M⁻¹ s⁻¹ | 1.08 nM | 0.161 µg/mL | 0.214 µg/mL | – | – | – | – | – |
| 33C12huVH3 + huVL2(P07302) (antibody, V domains shown, Humanized 33C12) VH: EVQLVESGGGLVKPGGSLRLSCAASGFTFSDYTMSWVRQAPGKGLEWVATISTGGSYTYYADSVKGRFTISRDNAKNSLYLQMNSLRAEDTAVYYCARDGGYDGDYFDYWGQGTTVTVSS VL: ENVLTQSPATLSLSPGERATLSCRASSSVSSSYLHWYQQKPGQAPRLWIYRTSNLASGVPARFSGSGSGTDFTLTISRLEPEDFAVYYCQQYSGYPLTFGGGTKLEIK | 3.01 nM | 11.9 nM | 0.00188 s⁻¹ | 158000 M⁻¹ s⁻¹ | 2.03 nM | 0.303 µg/mL | 0.449 µg/mL | – | – | – | – | – |
| 33C12huVH3 + huVL3(P07304) (antibody, V domains shown, Humanized 33C12) VH: EVQLVESGGGLVKPGGSLRLSCAASGFTFSDYTMSWVRQAPGKGLEWVATISTGGSYTYYADSVKGRFTISRDNAKNSLYLQMNSLRAEDTAVYYCARDGGYDGDYFDYWGQGTTVTVSS VL: EIVLTQSPATLSLSPGERATLSCRASSSVSSSYLHWYQQKPGQAPRLLIYRTSNLATGIPDRFSGSGSGTDFTLTISRLEPEDFAVYYCQQYSGYPLTFGGGTKLEIK | 1.08 nM | 48.7 nM | 0.00368 s⁻¹ | 75600 M⁻¹ s⁻¹ | 0.354 nM | 0.0528 µg/mL | 0.161 µg/mL | – | – | – | – | – |
| 12E12-huVH6 + huVL2(P08937) (antibody, V domains shown, Humanized 12E12) VH: QVQLVQSGAEVKKPGASVKVSCKASGYTITDFYIHWVRQAPGQGLEWIGRVDPEDGNTEYAPNFQDRATMTTDTSTSTAYLELSSLRSEDTAVYYCSTWDGFSYFDYWGQGTTVTVSS VL: QAVVTQEPSLTVSPGGTVTLTCRSSTGPVTTNNYANWVQQKPGQAFRGLIGGTNDRAPGVPARFSGSLLGGKAALTLSGAQPEDEAEYYCALWYRNHWVFGGGTKLTVL | – | – | – | – | – | – | – | 0.0322 µg/mL and 0.216 nM | 5.28 nM | 0.00449 s⁻¹ | 849000 M⁻¹ s⁻¹ | 0.0096 µg/mL and 0.064 nM |
| 12E12-huVH8 + huVL2(P08939) (antibody, V domains shown, Humanized 12E12) VH: EVQLVQSGAEVKKPGATVKISCKVSGYTITDFYIHWVQQAPGKGLEWMGRVDPEDGNTEYAPNFQDRVTITADTSTDTAYMELSSLRSEDTAVYYCSTWDGFSYFDYWGQGTTVTVSS VL: QAVVTQEPSLTVSPGGTVTLTCRSSTGPVTTNNYANWVQQKPGQAFRGLIGGTNDRAPGVPARFSGSLLGGKAALTLSGAQPEDEAEYYCALWYRNHWVFGGGTKLTVL | – | – | – | – | – | – | – | 0.0284 µg/mL and 0.19 nM | 3.92 nM | 0.00442 s⁻¹ | 1.13e+06 M⁻¹ s⁻¹ | 0.0158 µg/mL and 0.106 nM |
| 12E12-huVH6 + huVL4(P08940) (antibody, V domains shown, Humanized 12E12) VH: QVQLVQSGAEVKKPGASVKVSCKASGYTITDFYIHWVRQAPGQGLEWIGRVDPEDGNTEYAPNFQDRATMTTDTSTSTAYLELSSLRSEDTAVYYCSTWDGFSYFDYWGQGTTVTVSS VL: EAVVTQSPATLSLSPGERATLSCRSSTGPVTTNNYANWVQQKPGQAFRGLIGGTNDRAPGIPARFSGSGSGTDTTLTISSLQPEDFAVYYCALWYRNHWVFGGGTKLEIK | – | – | – | – | – | – | – | 0.0279 µg/mL and 0.187 nM | 4.03 nM | 0.0034 s⁻¹ | 844000 M⁻¹ s⁻¹ | 0.011 µg/mL and 0.073 nM |
| 12E12-huVH7 + huVL4(P08941) (antibody, V domains shown, Humanized 12E12) VH: QVQLVQSGAEVKKPGASVKVSCKASGYTITDFYIHWVRQAPGKGLEWMGRVDPEDGNTEYAQKFQGRVTMTTDTSTDTAYMELSSLRSEDTAVYYCSTWDGFSYFDYWGQGTTVTVSS VL: EAVVTQSPATLSLSPGERATLSCRSSTGPVTTNNYANWVQQKPGQAFRGLIGGTNDRAPGIPARFSGSGSGTDTTLTISSLQPEDFAVYYCALWYRNHWVFGGGTKLEIK | – | – | – | – | – | – | – | 0.0273 µg/mL and 0.183 nM | 2.8 nM | 0.0035 s⁻¹ | 1.25e+06 M⁻¹ s⁻¹ | 0.0217 µg/mL and 0.145 nM |
| 12E12-huVH8 + huVL4(P08942) (antibody, V domains shown, Humanized 12E12) VH: EVQLVQSGAEVKKPGATVKISCKVSGYTITDFYIHWVQQAPGKGLEWMGRVDPEDGNTEYAPNFQDRVTITADTSTDTAYMELSSLRSEDTAVYYCSTWDGFSYFDYWGQGTTVTVSS VL: EAVVTQSPATLSLSPGERATLSCRSSTGPVTTNNYANWVQQKPGQAFRGLIGGTNDRAPGIPARFSGSGSGTDTTLTISSLQPEDFAVYYCALWYRNHWVFGGGTKLEIK | – | – | – | – | – | – | – | 0.0353 µg/mL and 0.237 nM | 3.25 nM | 0.00437 s⁻¹ | 1.34e+06 M⁻¹ s⁻¹ | 0.0129 µg/mL and 0.087 nM |

— patent US20240392024A1 (SHANGHAI CELGEN BIO PHARMACEUTICAL, published 2024)
